Measured values taken from IntAct's records for PubMed 18818696.

B1: Protein SGT1 homolog (Homo sapiens), Q9Y2Z0-2 (parent)
chain: MAAAAAGTATSQRFFQSFSDALIDEDPQAALEELTKALEQKPDDAQYYCQRAYCHILLGNYCVAVADAKKSLELNPNNSTAMLRKGICEYHEKNYAAALETFTEGQKLDSADANFSVWIKRCQEAQNGSESEVWTHQSKIKYDWYQTESQVVITLMIKNVQKNDVNVEFSEKELSALVKLPSGEDYNLKLELLHPIIPEQSTFKVLSTKIEIKLKKPEAVRWEKLEGQGDVPTPKQFVADVKNLYPSSSPYTRNWDKLVGEIKEEEKNEKLEGDAALNRLFQQIYSDGSDEVKRAMNKSFMESGGTVLSTNWSDVGKRKVEINPPDDMEWKKY

Variants of: B1
Details: with skp1_human SKP1, P63208
Sequence of skp1_human SKP1, P63208 (P63208 whole entry): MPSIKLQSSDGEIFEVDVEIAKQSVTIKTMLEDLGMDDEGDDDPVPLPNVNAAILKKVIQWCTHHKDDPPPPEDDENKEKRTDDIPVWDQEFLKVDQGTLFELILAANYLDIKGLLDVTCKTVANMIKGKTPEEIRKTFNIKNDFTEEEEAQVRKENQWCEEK

Row | effect of a mutation on the interaction | Variant
1 | increasing interaction | Y145R
